For experiment [1], the target named is SNAP-25134-206 peptide (human). Put plainly: SPR (BIAcore 3000), peptide amine-coupled to CM5, antibody as analyte, 1:1 fit.
Experiment [2] deals with SNAP-25134-197 peptide (human). The description is as above.
The target of experiment [3] is syntaxin 1 (SiMa cell lysate) (human (SiMa cells)) (UniProt Q16623). Put plainly: ECL sandwich ELISA, SiMa lysate; capture S0664, detection S1172-2; result of the pair. On the technique in general: In an ELISA, binding on a coated surface is turned into a signal by an enzyme label.
The target is the same in experiment [4]. Put plainly: ECL sandwich ELISA, SiMa lysate; capture S0664, detection S1172-1; result of the pair.
For experiment [5], the target named is syntaxin 2 (SiMa cell lysate) (human (SiMa cells)) (UniProt P32856). Put plainly: ECL sandwich ELISA, SiMa lysate; capture MAB2936, detection AB5596; result of the pair.
For experiment [6] the target is unchanged. Put plainly: ECL sandwich ELISA, SiMa lysate; capture MAB2936, detection S5687; result of the pair.
Experiment [7] deals with GAPDH (SiMa cell lysate) (human (SiMa cells)) (UniProt P04406). Put plainly: ECL sandwich ELISA, SiMa lysate; capture G8795, detection 2275-PC-1; result of the pair.
Experiment [8] shares this target. Put plainly: ECL sandwich ELISA, SiMa lysate; capture MAB374, detection G9545; result of the pair.
Experiment [9] shares this target. Put plainly: ECL sandwich ELISA, SiMa lysate; capture MAB374, detection 2275-PC-1; result of the pair.
For experiment [10] the target is unchanged. Put plainly: ECL sandwich ELISA, SiMa lysate; capture MAB374, detection G8795; result of the pair.

The text below walks through data of patent US20100203559A1.

As to “MC-6053 α-SNAP-25 mouse monoclonal antibody (Research & Diagnostic Antibodies)”, in [1], the Kd was found to be 240 nM and the koff worked out at 2.56e-05 s⁻¹. In experiment [2], this substance came in with a Kd of 0.508 nM, a koff of 0.00118 s⁻¹ and a kon of 2.32e+06 M⁻¹ s⁻¹.

For “α-Syntaxin 1A-HPC mouse monoclonal antibody S0664 (Sigma)”, the Signal/Noise Ratio (lysate/buffer) in experiment [3] amounted to 1.21; in experiment [4], 4.23.

In experiment [1], “MC-6050 α-SNAP-25 mouse monoclonal antibody (Research & Diagnostic Antibodies)” came in with a Kd of 19800 nM, a koff of 0.00607 s⁻¹ and a kon of 306 M⁻¹ s⁻¹. Besides, in experiment [2], the equilibrium dissociation constant (Kd) was 0.497 nM, the dissociation rate constant (koff) was found to be 0.000882 s⁻¹ and the kon worked out at 1.78e+06 M⁻¹ s⁻¹.

For “α-human syntaxin 2 mouse monoclonal antibody MAB2936 (R & D Systems)”, the Signal/Noise Ratio (lysate/buffer) stood at 1.2 in experiment [5] and 1.07 in experiment [6].

As to “α-GAPDH mouse monoclonal antibody G8795 (Sigma)”, the Signal/Noise Ratio (lysate/buffer) in [7] amounted to 2.74.

“α-GAPDH mouse monoclonal antibody MAB374 (Chemicon)”: the Signal/Noise Ratio (lysate/buffer) was more than 100 in experiment [8], 20 in [9] and 0.89 in experiment [10].

Broadly, the Kd is the equilibrium constant for the complex coming apart. Higher therefore signals lower affinity. What is called koff is a measure of how fast the partners let go of each other. Read a low koff as a long-lived complex. As usually defined, the kon is a measure of how fast the partners come together. A high value points to faster complex formation.
